From IntAct's records for PubMed 18617507

B1: Serine/threonine-protein kinase VRK1 (Homo sapiens), Q99986 (parent)
chain: MPRVKAAQAGRQSSAKRHLAEQFAVGEIITDMAKKEWKVGLPIGQGGFGCIYLADMNSSESVGSDAPCVVKVEPSDNGPLFTELKFYQRAAKPEQIQKWIRTRKLKYLGVPKYWGSGLHDKNGKSYRFMIMDRFGSDLQKIYEANAKRFSRKTVLQLSLRILDILEYIHEHEYVHGDIKASNLLLNYKNPDQVYLVDYGLAYRYCPEGVHKEYKEDPKRCHDGTIEFTSIDAHNGVAPSRRGDLEILGYCMIQWLTGHLPWEDNLKDPKYVRDSKIRYRENIASLMDKCFPEKNKPGEIAKYMETVKLLDYTEKPLYENLRDILLQGLKAIGSKDDGKLDLSVVENGGLKAKTITKKRKKEIEESKEPGVEDTEWSNTQTEEAIQTRSRTRKRVQK

Variants of: B1
Details: with ran_human RAN

Variant | effect of a mutation on the interaction
K179E | decreasing interaction
